Literature values, collected in article PMC11820823.

Legend:
EphA8 Sam (Mus musculus) = EphA8 Sam (Mus musculus) (UniProt O09127); assay: ITC
EphA2 Sam (Mus musculus) = EphA2 Sam (Mus musculus) (UniProt Q03145)
EphA2 Sam (Homo sapiens) = EphA2 Sam (Homo sapiens) (UniProt P29317)
Sequence of EphA2 Sam (Homo sapiens) (P29317 901-971): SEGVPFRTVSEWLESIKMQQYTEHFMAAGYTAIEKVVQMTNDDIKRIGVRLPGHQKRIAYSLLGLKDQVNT

Sequence of SASH1 SH3-Sam1 (P59808 547-690): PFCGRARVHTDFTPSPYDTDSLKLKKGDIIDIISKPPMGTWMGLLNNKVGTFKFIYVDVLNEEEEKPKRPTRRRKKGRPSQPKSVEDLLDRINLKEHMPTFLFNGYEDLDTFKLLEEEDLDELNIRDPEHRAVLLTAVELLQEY
Sequence of EphA8 Sam (Mus musculus) (O09127 926-996): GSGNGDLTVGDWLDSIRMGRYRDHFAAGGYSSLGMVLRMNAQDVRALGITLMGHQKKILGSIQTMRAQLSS
Sequence of EphA2 Sam (Mus musculus) (Q03145 902-972): as the sequence (P29317 901-971) above, with A27V, T40S, D42E counted along it
Sequence of SASH1 Sam1 (P59808 623-693): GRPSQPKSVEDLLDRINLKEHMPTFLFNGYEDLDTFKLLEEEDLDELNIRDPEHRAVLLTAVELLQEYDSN
Sequence of Ship2 Sam (O15357 1193-1258): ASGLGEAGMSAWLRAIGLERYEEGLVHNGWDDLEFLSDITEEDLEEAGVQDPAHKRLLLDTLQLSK

| Kd (EphA8 Sam (Mus musculus)) [nM] | Kd (EphA2 Sam (Mus musculus)) [nM] | Kd (EphA2 Sam (Homo sapiens)) [nM] | Substance |
| --- | --- | --- | --- |
| 1090 | 2520 | – | SASH1 SH3-Sam1 (from UniProt P59808) |
| 880 | – | – | SASH1 Sam1 (from UniProt P59808) |
| – | – | 750 | Ship2 Sam (from UniProt O15357) |
